Measurements as given in ChEMBL document CHEMBL2074163, “Identification of monocarboxylate transporter 8 as a specific thyroid hormone transporter” (J Biol Chem, 2003).

Assays:
Format in all cases: functional, cell-based
Settings in all cases: Oocyte
[1] = substrate: N[C@@H](Cc1cc(I)c(Oc2cc(I)c(O)c(I)c2)c(I)c1)C(=O)O; experiment: (§1) TP_TRANSPORTER: uptake in Xenopus laevis oocytes
[2] = substrate: NC(Cc1ccc(Oc2cc(I)c(O)c(I)c2)c(I)c1)C(=O)O; experiment: as §1
[3] = substrate: N[C@@H](Cc1ccc(Oc2cc(I)c(O)c(I)c2)c(I)c1)C(=O)O; experiment: as §1

B1: Monocarboxylate transporter 8 (Rattus norvegicus), Q8K1P8 (protein)
chain: MALPSPASEEAEGPCQEANQEYQEPVCSPVPEPEPEPEPEPEPEPEPVPVPPPEPQPEPEPQPLPDPAPLPVLGFEAEPVQEPEPTPTVETRGTARGFQPPEGGFGWIVVFAATWCNGSIFGIHNSVGILYSMLLEEEKEKNRQVEFQAAWVGALAMGMIFFCSPIVSIFTDRLGCRITATTGAAVAFIGLHTSSFTSSLSLRYFTYGILFGCGCSFAFQPSLVILGHYFQRRLGLANGVVSAGSSIFSMSFPFLIKMLGDRIKLAQTFQVLSTFMFVLTLLSLTYRPLLPSSQDTPSKRGAHTLRQRFLVQFRKYFNMRVFRQRTYRIWAFGIAAAALGYFVPYVHLMKYVEDKFKEIKETWVLLVCIGATSGLGRLVSGHISDSIPGLKKIYLQVLSFLLLGLMSMMIPLCRDFGGLIVVCLFLGLCDGFFITIMAPIAFELVGPMQASQAIGYLLGMMALPMIAGPPIAGLLRNCFGNYHVAFYFAGVPPIIGAVILFFVPLMHQRMFKKEQRESSKDKMLSHDPDPNGELLPGSPTPEEPI
- Km [1]: 4.7 µM
- Km [2]: 2.2 µM
- Km [3]: 4 µM
